Results as given in patent US11499200B2, “Methods for determining resistance or susceptibility to HIV entry inhibitors” (Monogram Biosciences, Inc., priority 2005, dated 2022).

Legend:
[1] = target: clone 3 of FIG. 6 envelope protein with the wild-type residue at position 261 (HIV-1); experiment: cell-based or functional assay
[2] = target: clone 3 of FIG. 6 envelope protein (clone 11 of FIGS. 7-9), with L261S (HIV-1); experiment: cell-based or functional assay
[3] = system: HIV-1 particles pseudotyped with patient-derived or chimeric envelope proteins (gp160); experiment: Cell based HIV-1 entry assay (pseudotyped virus, luciferase): entry inhibitor susceptibility; details: FIG. 6; compared with sensitivity to B4
Method: In this embodiment, drug susceptibility, co-receptor tropism and virus neutralization testing are performed by co-transfecting a host cell with pHIVenv and pHIVlucΔU3. The host cell produces HIV particles that are pseudo-typed with HIV envelope sequences derived from the test virus or subject sample. Virus particles are collected (˜48 h) after transfection and are used to infect target cells that express HIV receptors (e.g. CD4) and co-receptors (e.g. CXCR4, CCR5). After infection (˜72 h) the target cells are lysed and luciferase activity is measured. HIV must complete one round of replication to successfully infect the target host cell and produce luciferase activity. […]
Drug susceptibility testing was performed using pHIVenv and pHIVluc or pHIVlucΔU3. […] After infection (˜72 h) the target cells are lysed and luciferase activity is measured. […] The amount of luciferase activity detected in the infected cells is used as a direct measure of “infectivity” (FIGS. 1 and 2). […] Drug susceptibility is assessed by comparing the infectivity in the absence of drug to infectivity in the presence of drug. Relative drug susceptibility can be quantified by comparing the susceptibility of the “test” virus to the susceptibility of a well-characterized reference virus (wildtype) derived from a molecular clone of HIV-1, for example NL4-3 or HXB2. […]

“PRO542 (from UniProt P01730 26-204) (receptor)” gave an IC50 of PRO542, log-sigmoid inhibition curves of the entry assay [1] of 0.9 µg/ml and an IC50 of PRO542, log-sigmoid inhibition curves of the entry assay [2] of 11 µg/ml.

For “TNX-355: HIV entry inhibitor under investigation (Tanox Inc.), listed as CD4 binding site entry inhibitor”, the “sensitivity to entry inhibitor, sixteen clones of one patient” value [3] was “varied inversely to sensitivity to B4”.
